The values that follow come from patent US20060217308A1, “Compositions for the treatment of tumor pathologies, comprising internalin B (ln1B) of Listeria monocytogene protein or a fragment thereof” (priority 2005, published 2006).

Format in all cases: cell-based, human
Assay [1] relates to Met. The assay is described as follows: Cell surface biotinylation and internalization assay of Met. Conditions: HeLa cells, In1B two minutes. Here is the method:
(A) Hela cells were treated (+) with […] epoximycin, […] clasto-lactacystin-β-lactone (lactone), 20 mM ammonium chloride, or 5 μM bafilomycin A1 (Baf-A1) for 90 minutes before addition of In1B. Cell extracts were loaded in a SDS-PAGE gel followed by immunoblot with anti-Met antibody. […] (B) Surface exposed proteins of Hela cells were biotinylated (Biot +) before addition of In1B. In1B was added for two minutes to allow internalization of Met, then cells were washed and biotin was removed (see methods and text) from the surface. Samples were precipitated with neutravidin agarose and blotted against Met.
Cell surface biotinylation and internalization assay were performed as described before (35). Briefly, the cells were washed in ice-cold PBS, and incubated with 25 mg/ml EZ-link Sulfo-NHS-SS-biotin (Pierce) 15 minutes in PBS pH 8.0, and followed by one wash with serum free media containing 0.1% BSA, followed by one wash in PBS containing Ca and Mg (PBS+CaMg; Gibco). The cells were then warmed to 37° C., incubated with In1B for two minutes, and then cooled down to 4° C. The cells were washed again with PBS+CaMg, and cell-surface debiotinylation was performed by adding 100 mM MESNA in 50 mM Tris-HCl pH 8.6, 100 mM NaCl, 1 mM EDTA and 0.2% BSA (3 times, 10 minutes incubation). […]

The test system of assay [2] is Met. Kind of assay: Kinetics of phosphorylation of Met after In1B (IP Met, blot phospho-tyrosine). Conditions: HeLa cells, In1B 5 nM (FIG. 8). Here is the method: FIG. 8 depicts the kinetics of phosphorylation and ubiquitination of Met. 5 nm of purified In1B was added to HeLa cells for the indicated times. Cell extracts were immunoprecipitated (IP) against Met and blotted (WB) against phospho-tyrosine (P-Tyr), Met or ubiquitin (Ub).
Sequence of Met (P08581 25-1390): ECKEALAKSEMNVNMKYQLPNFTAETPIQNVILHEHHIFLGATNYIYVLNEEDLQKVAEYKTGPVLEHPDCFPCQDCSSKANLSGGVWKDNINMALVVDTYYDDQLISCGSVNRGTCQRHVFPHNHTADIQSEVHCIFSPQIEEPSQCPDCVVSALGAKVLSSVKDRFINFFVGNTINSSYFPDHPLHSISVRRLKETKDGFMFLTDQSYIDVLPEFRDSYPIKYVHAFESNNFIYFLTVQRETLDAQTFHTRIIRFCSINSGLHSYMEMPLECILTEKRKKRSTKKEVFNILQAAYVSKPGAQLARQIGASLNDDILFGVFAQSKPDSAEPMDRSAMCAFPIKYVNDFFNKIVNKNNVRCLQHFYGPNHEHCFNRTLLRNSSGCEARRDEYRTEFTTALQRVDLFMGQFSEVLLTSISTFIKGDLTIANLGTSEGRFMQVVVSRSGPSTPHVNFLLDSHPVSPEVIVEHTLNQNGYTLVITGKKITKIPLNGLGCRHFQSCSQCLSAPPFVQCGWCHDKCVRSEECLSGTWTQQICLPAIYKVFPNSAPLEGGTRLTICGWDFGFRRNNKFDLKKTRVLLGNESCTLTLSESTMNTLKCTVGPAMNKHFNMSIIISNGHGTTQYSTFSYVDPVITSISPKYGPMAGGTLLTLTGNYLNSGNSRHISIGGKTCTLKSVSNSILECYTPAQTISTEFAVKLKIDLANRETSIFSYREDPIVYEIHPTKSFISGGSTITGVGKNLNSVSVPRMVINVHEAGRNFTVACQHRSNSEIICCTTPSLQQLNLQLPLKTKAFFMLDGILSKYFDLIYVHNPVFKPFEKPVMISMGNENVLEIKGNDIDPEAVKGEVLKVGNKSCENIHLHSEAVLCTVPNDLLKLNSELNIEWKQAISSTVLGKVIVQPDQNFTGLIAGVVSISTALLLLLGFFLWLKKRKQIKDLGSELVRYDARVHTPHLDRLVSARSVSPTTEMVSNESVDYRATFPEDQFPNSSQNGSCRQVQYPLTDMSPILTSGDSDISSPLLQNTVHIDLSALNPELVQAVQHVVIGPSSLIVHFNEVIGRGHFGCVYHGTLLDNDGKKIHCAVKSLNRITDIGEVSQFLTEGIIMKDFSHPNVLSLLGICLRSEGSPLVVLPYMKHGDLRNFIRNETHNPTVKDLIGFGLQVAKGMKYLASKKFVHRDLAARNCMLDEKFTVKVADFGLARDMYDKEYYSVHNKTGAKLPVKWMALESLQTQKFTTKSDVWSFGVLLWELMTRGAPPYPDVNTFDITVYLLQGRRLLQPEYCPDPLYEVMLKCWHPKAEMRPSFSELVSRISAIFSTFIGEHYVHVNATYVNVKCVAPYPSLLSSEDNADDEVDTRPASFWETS
Ligand-induced ubiquitination of RTKs is preceded by phosphorylation of the receptor, which is then recognized and ubiquitinated by the ubiquitin ligase Cbl (33). As previously shown (27), In1B rapidly stimulates Met phosphorylation and the kinetics of ubiquitination of Met follows that of phosphorylation with a maximum at two minutes after stimulation (FIG. 8).

The test system of assay [3] is Met. Kind of assay: In1B-induced degradation of Met, anti-Met immunoblot of total HeLa cell extracts. As for the experimental part:
FIG. 2 depicts the degradation and de-novo synthesis of Met. (A) HeLa cells were treated at the indicated times with 5 nM In1B and cellular extracts were blotted against Met. (B) Cells were treated as in A, but blotted at the same time with anti-Met antibody and Streptavidin. Stars indicate nonspecific bands recognized by streptavidin and the square indicates Met. (C) The experiment was performed as in A, but cells were pre-treated with […] of cycloheximide for 90 minutes before addition of In1B. (D) This experiment was performed as in A, but In1B was removed three minutes after it was added. Actin is shown as the loading control in A, C and D. The molecular mass of the markers is indicated in kDa.
Cells, bacteria and growth conditions. The human cell line used was HeLa (ATCC number CCL-2) grown as recommended by ATCC. Typically, cells were serum starved for three hours before the addition of In1B. The bacterial strains used were Listeria monocytogenes BUG600 and BUG1461. They were grown in BHI medium, which in the case […] contained 5 μg/ml of erythromycin.
Assays. Immunoprecipitation, Re-immunoprecipitation, and immunoblots were performed as described before (31). In1B purification was performed as described (54).
To study In1B-induced degradation of Met in more detail, HeLa cells were treated during increasing periods with In1B (5 nM) and anti-Met immunoblots were performed directly on total cell extracts (FIG. 2A).
When In1B is present, de-novo synthesized Met was in turn ubiquitinated and then degraded (FIG. 2A).
On the technique in general: In western blotting, separated proteins are transferred to a membrane and probed.

B1: In1B: Listeria monocytogenes surface protein of the internalin family that interacts with Met; purified soluble protein (protein, UniProt P0DQD2 31-630, looked up)
Internalin B: AKVQAETITVPTPIKQIFSDDAFAETIKDNLKKKSVTDAVTQNELNSIDQIIANNSDIKSVQGIQYLPNVTKLFLNGNKLTDIKPLANLKNLGWLFLDENKVKDLSSLKDLKKLKSLSLEHNGISDINGLVHLPQLESLYLGNNKITDITVLSRLTKLDTLSLEDNQISDIVPLAGLTKLQNLYLSKNHISDLRALAGLKNLDVLELFSQECLNKPINHQSNLVVPNTVKNTDGSLVTPEIISDDGDYEKPNVKWHLPEFTNEVSFIFYQPVTIGKAKARFHGRVTQPLKEVYTVSYDVDGTVIKTKVEAGTRITAPKPPTKQGYVFKGWYTEKNGGHEWNFNTDYMSGNDFTLYAVFKAETTEKAVNLTRYVKYIRGNAGIYKLPREDNSLKQGTLASHRCKALTVDREARNGGKLWYRLKNIGWTKAENLSLDRYDKMEYDKGVTAYARVRNASGNSVWTKPYNTAGAKHVNKLSVYQGKNMRILREAKTPITTWYQFSIGGKVIGWVDTRALNTFYKQSMEKPTRLTRYVSANKAGESYYKVPVADNPVKRGTLAKYKNQKLIVDCQATIEGQLWYRIRTSSTFIGWTKAANLRAQK
Consider B1, for which the “endocytosis of Met (protection of biotinylated Met from MESNA de-biotinylation)” value in assay [1] is “protected Met from de-biotinylation”. In addition, the “time of maximum of Met phosphorylation and ubiquitination after stimulation” value in assay [2] is on record as “two”. In addition, the “time after addition at which In1B-induced degradation of Met is observable” value in assay [3] is “one”. In addition, in assay [3] (HeLa cells, In1B 5 nM, 2 minutes), the “total amount of Met two minutes after addition of In1B” value is “strongly reduced”. Besides, the “specificity of the In1B effect for Met versus other cellular proteins” value in assay [3] (HeLa cells, In1B 5 nM, blot with anti-Met antibody and Streptavidin, actin control) is “only affected the amount of Met”. Moreover, in assay [3] (HeLa cells, In1B removed three minutes after addition, 15 minutes after initial exposure), the “degradation of re-synthesized Met when In1B was removed from the medium” value is “no degradation of Met was observed”.
